Here are results for 1 molecule from patent US20230398116A1, “Agent for reversing resistance to anticancer drugs” (Y'S AC CO., LTD., priority 2020, published 2023).

The nature of assay [1]: Heterogeneous chronic GVHD model (NOG mice transplanted with human umbilical cord blood mononuclear cells). As to conditions: for lung histopathology (inflammatory cell infiltration, fibrogenesis, collagen): eight weeks after transplantation, H&E and Azan-Mallory staining, FIG. 60. The class given is in vivo, mouse. The protocol: On day −1, NOG mice were irradiated with a sublethal dose (100 cGy). On day 0, 5×10^6 human umbilical cord blood mononuclear cells were transplanted from the tail vein of NOG mice. Survival of the mice was assessed daily and body weight was measured twice a week. In an antibody treatment experiment, the control human IgG or anti-human IL-26 monoclonal antibody (the mouse antibody m69-10 and the humanized antibody h69-10A) was administered from day +28 of transplantation when clinical signs/symptoms of mild GVHD began to appear. The antibody solution was adjusted to a concentration of 1 mg/mL with sterile PBS, and 200 μL (200 μg) of the antibody solution per mouse was intraperitoneally injected twice a week. On day +56 after transplantation, the mice were sacrificed, and the skin, lung, liver, and large intestine were collected.
NOG mice were dissected, and then the skin, lung, liver, and large intestine on the back were excised, fixed in 10% formalin solution (Wako) at room temperature, and embedded in paraffin. Thereafter, a section having a thickness of 5 μm was prepared and placed on a glass slide, and stained with hematoxylin and eosin (H&E). In addition, in order to confirm the proliferation of collagen fibers, Azan-Mallory staining was performed. Images of the optical microscope were taken with an Olympus BX41 microscope (OLYMPUS, Tokyo, Japan) connected with an Olympus digital camera DP25, and CellSens software was used.

For assay [2], the target named is T1, IL-26 (Homo sapiens, UniProt Q9NPH9).
T1 sequence (Q9NPH9 22-171): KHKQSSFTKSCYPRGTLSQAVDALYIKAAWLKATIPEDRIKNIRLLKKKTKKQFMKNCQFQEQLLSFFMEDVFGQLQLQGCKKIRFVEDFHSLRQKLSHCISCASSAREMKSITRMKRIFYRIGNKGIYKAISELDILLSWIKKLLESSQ
Kind of assay: ELISA of antigen binding to human IL-26. More on the design: purchased R&D Systems 1375-IL/CF. The conditions noted are these: plates coated with 0.5 μg/ml human IL-26 monomer; calculated using GraphPadPrism. The protocol:
The antigen binding of purified Ch69-10-IgG1, Hu69-10A-IgG1, and Hu69-10B-IgG1 was analyzed by ELISA. ELISA plates were coated overnight at 4° C. with the addition of 0.5 μg/ml human IL-26 (recombinant human IL-26/AK155 monomer, Cat #1375-IL/CF, R&D Systems, Minneapolis, MN) at 100 μl/well in 0.2 M sodium carbonate buffer (pH 9.4). Wells were washed with the wash buffer and blocked with the ELISA buffer. Subsequently, 100 μl/well of test antibody (mouse 69-10, Ch69-10-IgG1, Hu69-10A-IgG1, or Hu69-10B-IgG1) serially diluted 2-fold in RPMI medium starting at 5 μg/ml was added to measure a binding with IL-26. After incubation at room temperature for 1 hour and washing the plates with a wash buffer, a 1/2,000-diluted HRP-conjugated goat anti-human kappa chain polyclonal antibody (Bethyl Laboratories) (for Ch69-10-IgG1, Hu69-10A-IgG1 and Hu69-10B-IgG1) or a 1/2,000-diluted HRP-labeled goat anti-mouse kappa chain polyclonal antibody (Bethyl Laboratories) (for mouse 69-10) in ELISA buffer was added at 100 μl/well to detect bound antibodies. After incubation at room temperature for 30 min and washing with the wash buffer, 100 μl/well of ABTS substrate (Sigma Aldrich) was added to start color development and 100 μl/well of 2% oxalic acid was added to stop the color development. The absorbance was measured at 405 nm.

In assay [3] the target is T1, IL-26. Kind of assay: ICAM-1 expression analysis of COLO205 (neutralizing activity of IL-26). The class given is cell-based. Also on record: host or cells: added exogenously to COLO205 cells. As to conditions: COLO205, recombinant human IL-26 monomer 20 ng/mL, 24 hours, flow cytometry (MFI). As for the experimental part: COLO205 was seeded at 5×10^4 cells/well in a 96-well flat bottom plate, and stimulated with recombinant human IL-26 monomer (20 ng/mL) in the presence or absence of control human IgG or anti-human IL-26 antibody. After 24 hours of culture, the cells were collected and washed with ice-cold PBS (FCM buffer) containing 1% FBS and 0.1% sodium azide. Thereafter, a solution prepared by diluting a PE-labeled mouse anti-human ICAM-1 monoclonal antibody (clone 15.2, catalog number 50-0549-T100) of Bay bioscience (Kobe, Japan) or a PE-labeled mouse Igl,k isotype control monoclonal antibody (clone MOPC-21, catalogue number 400114) of BioLegend with FCM buffer to 5 μg/mL, was added at 50 μL/sample, and the mixture was allowed to stand at 4° C. for 25 minutes. Thereafter, the cells were washed with ice-cold FCM buffer, then measured with FACSCalibur, and the obtained data was analyzed with FlowJo.

The target in assay [4] is T1, IL-26. Kind of assay: MTT assay of HUVECs stimulated with IL-26 (neutralizing activity of IL-26). The class given is cell-based. More on the design: purchased R&D Systems; host or cells: added exogenously to HUVECs. The conditions noted are these: HUVECs, IL-26 10 ng/mL, 48 hours, MTT assay. The protocol: Human and mouse breast cancer cells (1×10^4) were cultured in 10% FCS containing RPMI1640 medium on a 96-well flat bottom plate (Corning, Tewksbury, MA) at 37° C. for 24 hours, and then stimulated with IL-26 for 48 hours in the presence or absence of EGFR-TKI (gefitinib or erlotinib) at various concentrations, a signal inhibitor, and a neutralizing antibody. HUVECs were seeded in a 96-well flat bottom plate at 5×10^3 cells/well in a 2% FBS-containing EGM medium in which growth factors were reduced by half, and cultured at 37° C. for 12 hours. Thereafter, the medium was aspirated, and a recombinant human IL-26 dimer was adjusted to a final concentration of 10 ng/mL in a 2% FBS-containing EGM medium containing no growth factors, and added to the cells. The stimulation was started in the presence or absence of control human IgG and anti-human IL-26 antibodies, and the cells were cultured for 48 hours. Thereafter, a concentration of 20 μl or 1/10 of a 5 mg/ml MTT solution (Tetrazolium monosodium salt, WST-8) was added to each well, and the plate was allowed to stand for 1 hour. The absorbance at 450 nm/595 nm was measured using Microplate Reader (Bio-Rad, Hercules, CA) and data was analyzed with Microplate Manager 6 software (Bio-Rad).
In general terms: Tetrazolium dyes change colour on reduction, which living cells bring about.

[5] abbreviates: 200 μg per mouse i.p. twice a week from day 28, data not shown.

B1: 69-10: mouse anti-human IL-26 monoclonal antibody, clone 69-10, from deposited hybridoma (antibody, V domains shown)
VH: QVTLKESGPGILKPSQTLSLTCSFSGFSLSTSGMGVGWIRQPSGKGLEWLAHIWWDDDKYYNPSLKSQLTISKDTSRNQVFLKITSVDTADTATYYCVRGGITATHYYAMDYWGQGTSVTVSS
VL: DIQMTQSPASQSASLGESVTISCLASQTIGTWLSWYQQKPGKSPQLLIYAATSLADGVPSRFSGSGSGTKFSFKISSLQAEDFVSYYCQQLYSSPWTFGGGTKLEIK
As for B1, in assay [1] (setting [5]), the body weight loss result is recorded as “clearly reduced” and the “number of survival days” value was “significantly prolonged”. In assay [1], the “lung histopathology (inflammatory cell infiltration, fibrogenesis, collagen)” value is listed as “clearly reduced”. Moreover, the “lung histopathology (inflammatory cell infiltration, fibrogenesis, collagen)” value in assay [1] (listed as m69-10) was “suppression of inflammatory cell infiltration, reduction of fibrogenesis, and reduction of collagen deposition were remarkably observed”. The “hair disorder (appearance)” value in assay [1] (eighth week of transplantation) is “slightly suppressed”. Also, the “EC50 values (binding to human IL-26, ELISA)” value with IL-26 [2] was 0.34 mg/L. The “inhibition of IL-26-enhanced expression of ICAM-1” value in the assay with IL-26 [3] was “partially inhibited”. Also, in the assay with IL-26 [4], the “inhibitory effect of IL-26 (IL-26-promoted proliferation of HUVECs)” value is given as “not inferior to that of the commercially available goat anti-human IL-26 polyclonal antibody”.
